Molecular target: CV1, an engineered high-affinity membrane receptor for CD47
Assay: flow cytometry; HEK 293T cells with light-induced CV1 incubated with biotinylated CD47, detected by streptavidin-PE

percent of engineered cells stained with CD47: > 80%
Substance: Biotinylated CD47 protein (from UniProt Q08722 19-135) (ligand)

Source: patent US20230233607A1
